Target: T1, L-plastin EF construct (EF-hand headpiece domain, H5 region omitted) (human)
T1 construct: human L-plastin (LPL), EF construct: the two N-terminal EF-hand motifs (helices 1-4, residues 8-79) with the H5 region omitted; holds Cys42; 15N-labelled in the NMR experiment; immobilised by Cys42 in SPR; also called LPL-EF; EF domain of LPL; source: E. coli BL21 (DE3), purified (IMAC, His-tag cleaved with TEV protease); not shown: His-tag, N-terminal, cleaved
Assay: SPR; EF construct immobilised by its sole cysteine (Cys42) on a CM5 chip by thiol coupling; peptides injected; BIAcore X100; 10 mM Tris-HCl pH 7.5, 150 mM KCl, 1 mM CaCl2, 0.005% Tween-20; 30 uL/min, contact 1 min, 25 °C
Conditions: both partners purified

B1: CaMKI peptide (CaM-binding peptide) (peptide)
chain: AKSKWKQAFNATAVVRHMRKLQ
modifications: Limits are not given; 299-320 is the conventional 22-residue CaMKI calmodulin-binding peptide. Terminal modifications are not stated.
  Kd: 3.27 µM

Source: paper PMC5286426, “The Calcium-Dependent Switch Helix of L-Plastin Regulates Actin Bundling” (Scientific Reports, 2017)
